Read-outs that look alike come from different tables or passages of the source.
T1: human ActRIIB (human, UniProt Q13705 19-137, limits assumed)
T1 construct: antigen in MSD-SET; also called ACVR2B; ActR2B
T1 sequence: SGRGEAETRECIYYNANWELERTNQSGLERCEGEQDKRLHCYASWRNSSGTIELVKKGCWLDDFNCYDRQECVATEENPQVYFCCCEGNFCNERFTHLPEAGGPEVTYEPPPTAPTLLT


Legend:
human ActRIIA [1] = target: T2, human ActRIIA (human, UniProt P27037 20-135, limits assumed); assay: MSD-SET
T2 construct: antigen in MSD-SET; also called ACVR2A; ActR2A

human ActRIIB [2] = target: T1, human ActRIIB; assay: MSD-SET
[3] = target: T3, ActRIIA and ActRIIB (on TGFB/SMAD SBE Reporter HEK293 cells) (human); assay: cell-based or functional assay
[4] = target: T3, ActRIIA and ActRIIB (on TGFB/SMAD SBE …); assay: cell-based or functional assay; remark: listed apart in the source
human ActRIIA [5] = target: T2, human ActRIIA; assay: MSD-SET; remark: listed apart in the source
human ActRIIB [6] = target: T1, human ActRIIB; assay: MSD-SET; remark: listed apart in the source
human ActRIIA [7] = target: T2, human ActRIIA; assay: MSD-SET; remark: listed apart in the source
human ActRIIB [8] = target: T1, human ActRIIB; assay: MSD-SET; remark: listed apart in the source

T2 sequence (P27037 20-135 limits assumed): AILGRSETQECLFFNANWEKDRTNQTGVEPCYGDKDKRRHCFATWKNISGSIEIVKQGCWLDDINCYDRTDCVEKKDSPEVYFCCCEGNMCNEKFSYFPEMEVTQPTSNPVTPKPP

Row | Kd (human ActRIIA [1]) | Kd (human ActRIIB [2]) | IC50, Activin SMAD RGA [3] | IC50, Myostatin SMAD RGA [3] | IC50, Activin SMAD RGA [4] | IC50, Myostatin SMAD RGA [4] | IC90, Activin SMAD RGA [4] | IC90, Myostatin SMAD RGA [4] | Kd (human ActRIIA [5]) | Kd (human ActRIIB [6]) | Kd (human ActRIIA [7]) | Kd (human ActRIIB [8]) | Binder
1 | 0.055 nM | 0.062 nM | 1.5 nM | 2.32 nM | – | – | – | – | – | – | – | – | Ochsamaulsalat Fab (Fab, V domains shown, Fab) VH: QVQLVQSGAEVKKPGASVKVSCKASGYTFTSSYINWVRQAPGQGLEWMGTINAVSGSTSYAQKFQGRVTMTRDTSISTAYMELSRLRSDDTAVYYCARGGWFDYWGQGTLVTVSS VL: QSALTQPASVSGSPGQSITISCTGTSSDVGSRNYVNWYQQHPGKAPKLMIYGVSKRESGVSNRFSGSKSGNTASLTISGLQAEDEADYYCGTFAGGDYYGVFGGGTKLTVL
2 | – | – | – | – | 0.324 nM | 0.394 nM | 4.69 nM | 2.62 nM | 0.023 nM | 0.01 nM | – | – | Antibody Floischbrühsupp (antibody, V domains shown, full-length IgG) VH: QVQLVQSGAEVKKPGASVKVSCKASGYTFTSSYINWVRQAPGQGLEWMGTINAVSGSTSYAQKFQGRVTMTRDTSISTAYMELSRLRSDDTAVYYCARGGWFDYWGQGTLVTVSS VL: QSALTQPASVSGSPGQSITISCTGTSSDVGSFNYVNWYQQHPGKAPKLMIKGVSKRESGVSNRFSGSKSGNTASLTISGLQAEDEADYYCGTFAGGAYYGVFGGGTKLTVL
3 | – | – | – | – | 0.423 nM | 0.679 nM | 4.86 nM | 6.09 nM | 0.033 nM | 0.009 nM | – | – | Antibody Dürrfloischeggla (antibody, V domains shown, full-length IgG) VH: QVQLVQSGAEVKKPGASVKVSCKASGYTFTSSYINWVRQAPGQGLEWMGTINAVSGSTSYAQKFQGRVTMTRDVSISTAYMELSRLRSDDTAVYYCARGGWFDYWGQGTLVTVSS VL: QSALTQPASVSGSPGQSITISCTGTSSDVGSYNVVNWYQQHPGKAPKLMISGVSKRESGVSNRFSGSKSGNTASLTISGLQAEDEADYYCGTFAGGKYYGVFGGGTKLTVL
4 | – | – | – | – | 0.238 nM | 0.327 nM | 3.15 nM | 2.21 nM | 0.016 nM | 0.006 nM | – | – | Antibody Ochsauga (antibody, V domains shown, full-length IgG) VH: QVQLVQSGAEVKKPGASVKVSCKASGYTFTSSYINWVRQAPGQGLEWMGTINAVSGSTSYAQKFQGRVTMTRDTSISTAYMELSRLRSDDTAVYYCARGGWFDVWGQGTLVTVSS VL: QSALTQPASVSGSPGQSITISCTGTSSDIGSYNYVNWYQQHPGKAPKLMIYGVSKRESGVSNRFSGSKSGNTASLTISGLQAEDEADYYCGTFAGGSYYGVFGGGTKLTVL
5 | – | – | – | – | 0.722 nM | 0.977 nM | 5.56 nM | 6.59 nM | 0.018 nM | 0.013 nM | – | – | Antibody Hasaschlegel (antibody, V domains shown, full-length IgG) VH: QVQLVQSGAEVKKPGASVKVSCKASGYTFTSSYINWVRQAPGQGLEWMGTINAVSGSTSYAQKFQGRVTMTRDTSISTAYMELSRLRSDDTAVYYCARGGWFDYWGQGTLVTVSS VL: QSALTQPASVSGSPGQSITISCTGTSSDVGSYDYVNWYQQHPGKAPKLMIHGVSKRESGVSNRFSGSKSGNTASLTISGLQAEDEADYYCGTFAGGSYYGVFGGGTKLTVL
6 | – | – | – | – | – | – | – | – | – | – | 0.036 nM | 0.011 nM | Schwardamaga, Human IgG1-PALALA (antibody, V domains shown, human IgG1 with PA-LALA (L234A/L235A/P329A), EU numbering) VH: QVQLVQSGAEVKKPGSSVKVSCKASGYTFTSSYINWVRQAPGQGLEWMGTINAVSGSTSYAQKFQGRVTITADTSTSTAYMELSSLRSEDTAVYYCARGGWFDYWGQGTLVTVSS VL: QSALTQPRSVSGSPGQSVTISCTGTSSDVGSANYVNWYQQHPGKAPKPMIYGVSRRPSGVPDRFSGSKSGNTASLTISGLQAEDEADYYCGTFAGGKYYGVFGGGTKLTVL
7 | – | – | – | – | – | – | – | – | – | – | 0.04 nM | 0.013 nM | Schwardamaga, Human IgG1-PALALA-YTE (antibody, V domains shown, human IgG1 with PA-LALA (L234A/L235A/P329A) and YTE (M252Y/S254T/T256E), EU numbering) VH: QVQLVQSGAEVKKPGSSVKVSCKASGYTFTSSYINWVRQAPGQGLEWMGTINAVSGSTSYAQKFQGRVTITADTSTSTAYMELSSLRSEDTAVYYCARGGWFDYWGQGTLVTVSS VL: QSALTQPRSVSGSPGQSVTISCTGTSSDVGSANYVNWYQQHPGKAPKPMIYGVSRRPSGVPDRFSGSKSGNTASLTISGLQAEDEADYYCGTFAGGKYYGVFGGGTKLTVL

Source: patent US20250243286A1 (SIXPEAKS BIO, published 2025)
